Measured values taken from patent publication US20240343803A1 (SHANDONG SIMCERE BIOPHARMACEUTICAL, published 2024).
Like-named read-outs stand apart in the source and are kept apart here. Each block holds one binder with its values, some of them ahead of it.

Legend:
[1] = molecular target: T1, human PVRIG (AcroBiosystems, Cat NO. PVG-H52H4) (human, UniProt Q6DKI7 41-171, limits assumed); test: ELISA, coated human PVRIG
T1 construct: Bought protein with His tag; also called human PVRIG-his; human PVRIG protein
T1 sequence (looked up): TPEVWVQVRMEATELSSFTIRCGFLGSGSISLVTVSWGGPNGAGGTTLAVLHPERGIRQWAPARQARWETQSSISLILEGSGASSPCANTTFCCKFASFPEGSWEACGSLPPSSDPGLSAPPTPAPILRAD
Description: (§1) The ELISA plate was pre-coated with 50 μL/well of 1.0 μg/mL human PVRIG (AcroBiosystems, Cat NO. PVG-H52H4) or 50 μL/well of 0.5 μg/mL cynomolgus monkey PVRIG (Novoprotein, Cat NO. C09B). The tested antibodies were serially diluted (initial concentration 13 nM, 3-fold serial dilution, 12 concentration points), added into the plate (50 μL/well) and incubated at 37° C. for 2.0 hours. After washing the plate, the Goat anti-human IgG Fc-HRP (Merck, Cat NO. AP113P) working solution (dilution ratio 1:5000, 50 μL/well) were added into wells and incubated at 37° C. for 1.0 hour. A HRP substrate, TMB (KPL, Cat NO. 5120-0077) was added into wells after washing the plate again and incubated at 37° C. for 10 minutes for color development. After adding a termination solution to terminate the reaction, the absorbance value was read by a microplate reader (PE, Ensight-HH3400). An antibody binding curve was drawn with molar concentration of antibodies as the abscissa and the corresponding OD value as the ordinate. The EC50 value was calculated by using a Four Parameter Logistic Fit (GraphPadPrism9). […] The positive control antibodies are COM701-hIgG1, PVRIG-A50-H1b and PVRIG-A105-H1; and the negative control antibodies are anti-Fluorescein-hIgG1 (in house). The binding results of the 4 humanized bispecific antibodies to human PVRIG protein are shown in FIG. 41 and Tables 40 and 41, and the binding results to cynomolgus monkey PVRIG are shown in FIG. 42 and Tables 40 and 41. […] The binding of LC-BsAb-002 and LC-BsAb-006 to human PVRIG protein is slightly weaker than that of the corresponding monoclonal antibody (PVRIG-A50-H1b) and the positive control (COM701-hIgG1).

[2] = molecular target: T2, cynomolgus monkey PVRIG (Novoprotein, Cat NO. C09B) (cynomolgus monkey, UniProt A0A2K5WVV8 41-171); test: ELISA, coated cynomolgus PVRIG
T2 construct: Bought protein; construct not described; also called cynomolgus monkey PVRIG protein
T2 sequence: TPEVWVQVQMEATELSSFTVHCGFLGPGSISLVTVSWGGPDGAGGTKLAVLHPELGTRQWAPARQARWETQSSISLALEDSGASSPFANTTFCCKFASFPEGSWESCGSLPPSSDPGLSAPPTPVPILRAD
Description: as §1

[3] = molecular target: T3, human PVRIG-mFc protein (Acro, PVG-H5253) (human, UniProt Q6DKI7 41-171, limits assumed); test: HTRF competition, PVRIG-mFc with Bio-CD112-His as competitor
T3 construct: extracellular domain; Bought protein; also called PVRIG-ECD-mFc; not shown: mouse Fc tag of the bought protein
T3 sequence (looked up): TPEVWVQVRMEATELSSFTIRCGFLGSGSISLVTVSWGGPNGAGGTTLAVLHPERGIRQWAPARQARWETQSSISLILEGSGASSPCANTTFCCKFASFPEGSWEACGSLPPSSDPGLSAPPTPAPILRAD
Description: PVRIG-mFc (ACRO Biosystems, Cat NO. PVG-H5253) and Bio-CD112-His (Sino Biological, Cat NO. 10005-H08H) were diluted to 0.5 μg/mL, respectively. Streptavidin-Tb cryptate (Cisbio) and PAb anti mouse IgG-XL665 (Cisbio) were diluted to 20 μg/mL and 0.8 μg/mL, respectively. The tested antibodies were diluted from the initial concentration of 120 nM, by 3-fold serial dilution for 12 concentration points. The diluted PVRIG-mFc, Bio-CD112-His, Streptavidin-Tb Crytate and PAb anti mouse IgG-XL665 were mixed at 1:1:1:1, and added into a 384-well plate (PE, Cat NO. 6007299), 10 μL/well. 10 μL/well of serially diluted antibodies was added into wells, centrifuged at 1500 rpm for 30s, and incubated at 37° C. for 1 hour. The plate was read on the microplate reader (PE, Envision2105) with wavelengths of 665 nm and 620 nm. […] A Four Parameter Logistic Fit was performed with the molar concentration of the antibodies as the abscissa and Ratio as the ordinate to calculate IC50. The smaller the IC50, the better the effect of the antibody block the binding of PVRIG to PVRL2. The positive controls in this experiment are COM701-hIgG1, PVRIG-A50-H1b and PVRIG-A105-H1; and the negative control antibody is anti-Fluorescein-hIgG1 (in house). The effect of 4 humanized bispecific antibodies blocking the binding of PVRIG to PVRL2 is shown in FIG. 51 and Tables 44 and 45. […] The blocking effect of LC-BsAb-002 is better than its corresponding monoclonal antibody (PVRIG-A50-H1b) and the positive control (COM701-hIgG1). The blocking effect of LC-BsAb-006 is better than its corresponding monoclonal antibody (PVRIG-A50-H1b), but slightly weaker than the positive control (COM701-hIgG1). The blocking effects of LC-BsAb-009 and LC-BsAb-010 are not as good as their corresponding monoclonal antibodies (PVRIG-A105-H1) and the positive control (COM701-hIgG1).

[4] = molecular target: T3, human PVRIG-mFc protein (Acro, …); test: FACS blocking of PVRIG-mFc binding to CHO-K1-CD112 cells; competitor CD112
Procedure, shortened: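 After a further 30 min at 4° C with Zombie violet-stained CHO-K1-CD112 cells, binding was detected with PE goat anti-mouse IgG Fc (1:250) as mean fluorescence intensity on a BD Canto II. IC50 and curve AUC, taken from four-parameter logistic fits in GraphPad Prism, were expressed relative to a reference antibody as percentages.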

human TIGIT ECD-mFc [5] = molecular target: T4, human TIGIT ECD-mFc (human); test: ELISA, human TIGIT ECD-mFc captured by anti-mouse IgG
T4 construct: also called human TIGIT protein; fusion protein of extracellular domain of human TIGIT and mouse IgG2a Fc fragment
T4 chain: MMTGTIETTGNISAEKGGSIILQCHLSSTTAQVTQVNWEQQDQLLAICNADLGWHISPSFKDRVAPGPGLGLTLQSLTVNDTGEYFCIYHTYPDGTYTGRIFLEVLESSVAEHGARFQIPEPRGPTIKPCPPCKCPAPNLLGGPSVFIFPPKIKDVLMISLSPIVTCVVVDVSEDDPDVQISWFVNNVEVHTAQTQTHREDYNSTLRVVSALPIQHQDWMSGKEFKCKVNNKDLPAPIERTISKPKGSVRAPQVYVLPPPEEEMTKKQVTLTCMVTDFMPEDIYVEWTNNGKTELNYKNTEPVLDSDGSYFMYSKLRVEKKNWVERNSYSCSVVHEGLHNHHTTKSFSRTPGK
Description: (§2) After washing with blocking buffer, the plate was added with 50 μL/well of 30 ng/ml human TIGIT ECD-mFc (in house) or cynomolgus monkey TIGIT ECD-mFc (in house) and incubated at 37° C. for 2.0 hours. After washing the plate, the serial diluted antibodies (initial concentration 13 nM, 3-fold serial dilution, 12 concentration points) were added into the plate (50 μL/well) and incubated at 37° C. for 2.0 hours. After washing the plate, the goat anti-human IgG Fc-HRP (Merck, Cat NO. AP113P)) working solution (dilution ratio 1:5000, 50 μL/well) were added into wells and incubated at 37° C. for 1.0 hour. A HRP substrate, TMB (KPL, Cat NO. 5120-0077) was added into wells after washing the plate again for color development. After adding a termination solution to terminate the reaction, the absorbance value was read by a microplate reader (PE, Ensight-HH3400). An antibody binding curve was drawn with molar concentration of antibodies as the abscissa and the corresponding OD value as the ordinate. The EC50 value was calculated by using a Four Parameter Logistic Fit (GraphPad Prism9). […] The positive control antibodies are RG6058-hIgG1, TIGIT-002-H4L3 and TIGIT-005-H2Lld; and the negative control antibodies are anti-Fluorescein-hIgG1 (in house). The binding results of the 4 humanized bispecific antibodies to human TIGIT protein are shown in FIG. 43 and Tables 42 and 43, and the binding results to cynomolgus monkey TIGIT are shown in FIG. 44 and Tables 42 and 43.

human TIGIT ECD-mFc [6] = molecular target: T4, human TIGIT ECD-mFc; test: as above
Description: as §2

[7] = molecular target: T5, cynomolgus monkey TIGIT ECD-mFc (cynomolgus monkey); test: ELISA, cynomolgus TIGIT ECD-mFc captured by anti-mouse IgG
T5 construct: also called cynomolgus monkey TIGIT protein
Description: as §2

[8] = molecular target: T5, cynomolgus monkey TIGIT ECD-mFc; test: as above; remark: listed apart in the source
Description: as §2

% relative activity COM701-hIgG1/tested antibody [1]: 65.4%
% relative activity PVRIG-A50-H1b/tested antibody [1]: 100%
EC50 [1]: 0.379 nM
% relative activity COM701-hIgG1/tested antibody [2]: 95.5%
% relative activity PVRIG-A50-H1b/tested antibody [2]: 100%
EC50 [2]: 0.038 nM
% relative activity COM701-hIgG1/tested antibody [3]: 66.7%
% relative activity PVRIG-A50-H1b/tested antibody [3]: 100%
IC50 [3]: 0.206 nM
% AUC to COM701-hIgG4 [4]: 104%
% AUC to SO35-hIgG1 [4]: 61.6%
% AUC to parental Ab [4]: 85.5%
% IC50 to COM701-hIgG4 [4]: 95.2%
% IC50 to SO35-hIgG1 [4]: 73.7%
% IC50 to parental Ab [4]: 81.4%
B1: PVRIG-A50-H1b (Fc fusion)
chain: EVQLVESGGGLVQPGGSLRLSCAASGFTFSYYDMSWVRQAPGKGLEWVSTINSDGGRTSYVDSVKGRFTISRDNSKNTLYLQMNSLRAEDTAVYYCVEGDPHNFGLESLSLRDFGSWGQGTMVTVSS
notes: VHH-human IgG1 Fc format is stated for the parental VHH antibodies; not restated for the humanized variants; also called A50.VH1b; not shown: human IgG1 hinge-CH2-CH3 (Fc)

% relative activity RG6058-hIgG1/tested antibody (human TIGIT ECD-mFc [5]): 100%
% relative activity TIGIT-002-H4L3/tested antibody (human TIGIT ECD-mFc [5]): 74.3%
EC50 (human TIGIT ECD-mFc [5]): 0.0504 nM
% relative activity RG6058-hIgG1/tested antibody (human TIGIT ECD-mFc [6]): 100%
% relative activity TIGIT-005-H2L1d/tested antibody (human TIGIT ECD-mFc [6]): 85.2%
EC50 (human TIGIT ECD-mFc [6]): 0.0504 nM
% relative activity RG6058-hIgG1/tested antibody [7]: 100%
% relative activity TIGIT-002-H4L3/tested antibody [7]: 90%
EC50 [7]: 0.0461 nM
% relative activity RG6058-hIgG1/tested antibody [8]: 100%
% relative activity TIGIT-005-H2L1d/tested antibody [8]: 96.8%
EC50 [8]: 0.0461 nM
B2: RG6058-hIgG1 (antibody, V domains shown)
VH: EVQLQQSGPGLVKPSQTLSLTCAISGDSVSSNSAAWNWIRQSPSRGLEWLGKTYYRFKWYSDYAVSVKGRITINPDTSKNQFSLQLNSVTPEDTAVFYCTRESTTYDLLAGPFDYWGQGTLVTVSS
VL: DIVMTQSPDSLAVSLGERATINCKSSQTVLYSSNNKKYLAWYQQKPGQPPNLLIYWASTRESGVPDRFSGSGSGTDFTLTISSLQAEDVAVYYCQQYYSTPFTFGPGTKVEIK
notes: Anti-TIGIT positive control; also called Roche RG6058
